Target: the molecule itself
Assay: SEC; PepTSt solubilized and purified in LMNG (0.01%), final SEC step

B1: peptide transporter PepTSt from Streptococcus thermophilus (wild-type) (natural protein)
chain: MEDKGKTFFGQPLGLSTLFMTEMWERFSYYGMRAILLYYMWFLISTGDLHITRATAASIMAIYASMVYLSGTIGGFVADRIIGARPAVFWGGVLIMLGHIVLALPFGASALFGSIILIIIGTGFLKPNVSTLVGTLYDEHDRRRDAGFSIFVFGINLGAFIAPLIVGAAQEAAGYHVAFSLAAIGMFIGLLVYYFGGKKTLDPHYLRPTDPLAPEEVKPLLVKVSLAVAGFIAIIVVMNLVGWNSLPAYINLLTIVAIAIPVFYFAWMISSVKVTSTEHLRVVSYIPLFIAAVLFWAIEEQGSVVLATFAAERVDSSWFPVSWFQSLNPLFIMLYTPFFAWLWTAWKKNQPSSPTKFAVGLMFAGLSFLLMAIPGALYGTSGKVSPLWLVGSWALVILGEMLISPVGLSVTTKLAPKAFNSQMMSMWFLSSSVGSALNAQLVTLYNAKSEVAYFSYFGLGSVVLGIVLVFLSKRIQGLMQGVE
notes: PepTSt, major facilitator superfamily peptide transporter of Streptococcus thermophilus; Dimer in LMNG and DDM, monomer in DM and NM; also called Ce27; source: Escherichia coli C41, membrane solubilization, purified (IMAC, SEC) in DDM, DM, NM or LMNG; not shown: hexahistidine, C-terminal, cleaved
  stoichiometry N: 2

Reference: publication PMC5338821, “Structure determination of a major facilitator peptide transporter: Inward facing PepTSt from Streptococcus thermophilus crystallized in space group P3_(1)21” (PLoS ONE, 2017)
